Target: HMW protein antigen of the anti-HMW EIA
Assay: antigen-specific EIA, control chinchilla serum IgG titer on coated antigen, second experiment

serum of control chinchillas immunized with alum alone (antibody)
Anti-HMW antibody titers Log2 (Titers/100) (Log2 (Titers/100)): < 0.05

Source: EP1117807B1
